According to patent US8926966B1 (Regents of the University of California, priority 1990, dated 2015):
Like-named read-outs stand apart in the source and are kept apart here.

Tests used:
[1] = system: islet infiltrating T lymphocytes (IITLs); test: ^3H-thymidine incorporation, islet infiltrating T lymphocytes; format: cell-based
splenic lymphocytes = test: ^3H-thymidine incorporation, splenic lymphocytes; format: cell-based
[2] = system: IDDM autoantibodies in sera of human patients; test: Autoantibody reactivity with ^35S labeled GAD65 segments (immunoprecipitation, SDS-PAGE); format: binding; settings: IDDM patient sera of Table 10
Text: Portions of human GAD65 cDNA were amplified by the polymerase chain reaction (PCR; Saiki, et al., Science, 239:487, 1988) to produce DNA segments encoding three polypeptide segments: amino acid residues 1-224 (segment A); 224-398 (segment B); and 398-585 (segment C). Each construct also contained a T7 promoter, a consensus sequence for the initiation of translation and an initiating methionine codon (Korak, M., J. Cell Biol., 108:229, 1989). Each PCR product was then trascribed in vitro with T7 RNA polymerase and translated in vitro in a rabbit reticulocyte cell-free system in the presence of ^35S-methionine, using conditions recommended by the supplier (Amersham Corp., Arlington Heights, Ill.). Each test serum (30 μl) was incubated with the resulting ^35S labeled-polypeptides. The bound peptides were isolated with PAS and analyzed by SDS-PAGE in 12% polyaacrylamide and autoradiography.

NOD mice [3] = test: Insulitis score after tolerization of NOD mice; format: in vivo, mouse; settings: examined at 12 weeks
NOD mice [4] = system: NOD mice
Protocol: 1. […] At 12 weeks of age, mice were examined for insulitis and autoantigen reactive T-cells. […] Pancreatic tissue sections were stained by immunoperoxidase techniques for insulin and were counterstained with hematoxylin. Insulitis was scored in a blinded manner by examining 54 to 87 islets on 5 interrupted tissue sections from each pancreas. Proliferative splenic T-cell responses induced by various antigens were performed as described above in Example 4. Data in Table 8 are expressed as the average [^3H]-thymidine label (cpm) incorporated in triplicate cultures.

[5] = system: spleen cells of NOD, BALB/c and (NOD/BALB/c) F1 mice; settings: <4 or >16 week old NOD or control BALB/c or (NOD/BALB/c) F1 spleen cells
Protocol: Incorporation of label was measured by liquid scintillation counting.

NOD mice [6] = test: GAD immunization of 8 week old NOD mice, IDDM onset; format: in vivo, mouse
Text: Breeder mice were purchased from Taconic Farms and housed under specific pathogen-free conditions. Only female NOD mice were used in this study. […] Insulitis is generally observed beginning at 4 weeks of age. […] The incidence of IDDM in female mice is 70-90% by one year of age.
Urine glucose levels were monitored twice weekly. After observing above normal glucose in urea, blood glucose levels were monitored twice weekly.

[7] = system: autoantibodies to GAD in patient sera; test: Immunoprecipitation of ^35S-GAD65 / ^35S-GAD67 by sera drawn prior to IDDM onset; format: binding, human; set-up: key to band intensity of immunoprecipitated ^35S-GAD: 1 = lowest; 2 = medium; 3 = highest band intensities
Protocol: (§1) Islet cells were extracted as previously described by Atkinson, et al. (Lancet, 335:1357-1360, 1990) with the following modifications. […] The protein A Sepharose CL-4B was then boiled in Laemmli sample buffer (Laemmli, Nature, 227:680-685, 1970), and the samples were subjected to SDS-PAGE and fluororadiography (Kodak, X-omat AR5) using Enhance (New England Nuclear). Alternatively, the autoradiographs were analyzed by a BETAGEN (Boston, Mass.) analyzer. Both 64KA positive and negative sera were used in each assay, to serve as interassay controls. All fluororadiographs were analyzed and rated as positive or negative after comparison with the known interassay controls. […] A similar rating procedure was employed for the intensity of bands corresponding to immunoprecipitated ^35S-GAD65 and ^35S-GAD67.
Rat GAD65 and GAD67 cDNAs were subcloned into a bacterial expression system as previously described. Labeling of ^35S-GADs was completed by pulsing IPTG induced bacterium (growing in Minimal Media) for 15 minutes with TRAN ^35S-label (ICN). Cultures were then spun down and resuspended and sonicated in 1 ml of homogenizing buffer (1 mM phenylmethylsulfonyl fluoride (PMSF), 1 mM 2-aminoethylisothiouronium Bromide (AET) and 60 mM potassium phosphate, pH 7.1). After sonication, cell debris was removed by centrifugation and protein concentration was measured (Bradford, Anal. Biochem., 72:248, […]) in the supernatant (supernatant was stored in aliquots at −70° C.).

[8] = system: autoantibodies to the 64 kD autoantigen; test: Prior absorption of IDDM serum, recognition of 64 kD pancreatic polypeptide; format: binding; settings: human pancreatic islet cell lysate
Protocol: as §1
Prior absorption of these sera with GAD-6 monoclonal, which recognized GAD65 but not GAD67, or with bacterially produced GAD65, abolished the ability of the sera to recognize the 64 kD pancreatic polypeptide. […] In order to investigate the predictive value of GAD65, sera drawn from patients prior to onset of clinical manifestation of IDDM were tested for autoantibodies to GAD65.

ARFKMFPEVKEKGMAA [GAD65 (SEQ ID NO. 5)]
^3H-THYMIDINE INCORPORATION (cpm) BY LYMPHOID CELL POPULATION IITLs ([1]; 3 × 10^4 cells/well, 5 days culture with irradiated spleen cells): 9,500 cpm
IITL proliferative response relative to culture media or polio polypeptide ([1]; IITL population): 9 fold
^3H-THYMIDINE INCORPORATION (cpm) BY LYMPHOID CELL POPULATION SPLEEN (splenic lymphocytes; 1 × 10^5 cells/well, 5 days culture): 23,300 cpm

MKSMCPQAQLKVKYL [Poliovirus (SEQ ID NO. 4), reference compound]
^3H-THYMIDINE INCORPORATION (cpm) BY LYMPHOID CELL POPULATION IITLs [1]: 900 cpm
^3H-THYMIDINE INCORPORATION (cpm) BY LYMPHOID CELL […] (splenic lymphocytes): 22,500 cpm

Segment B: human GAD65 amino acid residues 224-398, in vitro translated, ^35S labeled
patients with antibodies reactive with the segment [2]: 41%

glutamic acid decarboxylase [GAD]
insulitis score of the completely tolerized mice (NOD mice [3]; NOD mice, 50 μg i.v. at 3 weeks): 0.0
Insultis Score (NOD mice [3]; Table 8A: female NOD mice, i.v. at 3 weeks of age, 50 μg (hsp-p 0.1 μg) in PBS, scale 0-4, mean ± SE): 0.1 ± 0.1
glucose levels of treated mice (NOD mice [4]; all treated mice, n=17, presently 37 weeks old): normal glucose levels
insulitis at 30 weeks of age (NOD mice [4]; five treated mice sacrificed at 30 weeks, one had very limited peri-insulitis): four mice were completely free of insulitis
T cell proliferation [5]: did not induce T cell proliferation
significance of delay of diabetes versus β-gal immunized mice (NOD mice [6]; 25 ug i.p. in IFA at 8 weeks, again every 6 weeks): < 0.02
onset of IDDM compared to control β-gal immunized mice (NOD mice [6]; FIG. 11): clear delay in the onset of IDDM
immunized mice with no signs of hyperglycemia until 36 weeks in age (NOD mice [6]; of 10 mice, 25 ug i.p. in IFA at 8 weeks, again every 6 weeks): 8

B1: Segment C: human GAD65 amino acid residues 398-585, in vitro translated, ^35S labeled (protein)
chain: MMGVPLQCSALLVREEGLMQNCNQMHASYLFQQDKHYDLSYDTGDKALQCGRHVDVFKLWLMWRAKGTTGFEAHVDKCLELAEYLYNIIKNREGYEMVFDGKPQHTNVCFWYIPPSLRTLEDNEERMSRLSKVAPVIKARMMEYGTTMVSYQPLGDKVNFFRMVISNPAATHQDIDFLIEEIERLGQDL
patients with antibodies reactive with the segment [2]: 27%

B2: Segment A: human GAD65 amino acid residues 1-224, in vitro translated, ^35S labeled (protein)
chain: MASPGSGFWSFGSEDGSGDSENPGTARAWCQVAQKFTGGIGNKLCALLYGDAEKPAESGGSQPPRAAARKAACACDQKPCSCSKVDVNYAFLHATDLLPACDGERPTLAFLQDVMNILLQYVVKSFDRSTKVIDFHYPNELLQEYNWELADQPQNLEEILMHCQTTLKYAIKTGHPRYFNQLSTGLDMVGLAADWLTSTANTNMFTYEIAPVFVLLEYVTLKKM
patients with antibodies reactive with the segment [2]: none

B3: GAD65: rat GAD65 expressed in bacteria, ^35S-labeled, in bacterial lysate (protein, UniProt Q05683 1-585, looked up)
Glutamate decarboxylase 2: MASPGSGFWSFGSEDGSGDPENPGTARAWCQVAQKFTGGIGNKLCALLYGDSEKPAESGGSVTSRAATRKVACTCDQKPCSCPKGDVNYALLHATDLLPACEGERPTLAFLQDVMNILLQYVVKSFDRSTKVIDFHYPNELLQEYNWELADQPQNLEEILTHCQTTLKYAIKTGHPRYFNQLSTGLDMVGLAADWLTSTANTNMFTYEIAPVFVLLEYVTLKKMREIIGWPGGSGDGIFSPGGAISNMYAMLIARYKMFPEVKEKGMAAVPRLIAFTSEHSHFSLKKGAAALGIGTDSVILIKCDERGKMIPSDLERRILEVKQKGFVPFLVSATAGTTVYGAFDPLLAVADICKKYKIWMHVDAAWGGGLLMSRKHKWKLNGVERANSVTWNPHKMMGVPLQCSALLVREEGLMQSCNQMHASYLFQQDKHYDLSYDTGDKALQCGRHVDVFKLWLMWRAKGTTGFEAHIDKCLELAEYLYNIIKNREGYEMVFDGKPQHTNVCFWFVPPSLRVLEDNEERMSRLSKVAPVIKARMMEYGTTMVSYQPLGDKVNFFRMVISNPAATHQDIDFLIEEIERLGQDL
modifications: 35S-labeled
notes: rat GAD65 expressed in bacteria, ^35S-labeled, in bacterial lysate
specimens immunoreactive ([7]; 9 out of 12 sera drawn prior to IDDM onset): 75%
band intensity of immunoprecipitated ^35S-GAD ([7]; serum of patient eight, drawn 8 months before IDDM onset): 0
band intensity of immunoprecipitated ^35S-GAD ([7]; serum of patient eleven, drawn 10 months before IDDM onset): 1
band intensity of immunoprecipitated ^35S-GAD ([7]; serum of patient five, drawn 34 months before IDDM onset): 1
band intensity of immunoprecipitated ^35S-GAD ([7]; serum of patient nine, drawn 42 months before IDDM onset): 1
band intensity of immunoprecipitated ^35S-GAD ([7]; serum of patient one, drawn 9 months before IDDM onset): 1
band intensity of immunoprecipitated ^35S-GAD ([7]; serum of patient seven, drawn 3 months before IDDM onset): 0
band intensity of immunoprecipitated ^35S-GAD ([7]; serum of patient six, drawn 11 months before IDDM onset): 0
band intensity of immunoprecipitated ^35S-GAD ([7]; serum of patient ten, drawn 25 months before IDDM onset): 1
band intensity of immunoprecipitated ^35S-GAD ([7]; serum of patient three, drawn 14 months before IDDM onset): 2
band intensity of immunoprecipitated ^35S-GAD ([7]; serum of patient twelve, drawn 4 months before IDDM onset): 1
band intensity of immunoprecipitated ^35S-GAD ([7]; serum of patient two, drawn 6 months before IDDM onset): 3
band intensity of immunoprecipitated ^35S-GAD ([7]; serum of patient, drawn 66 months before IDDM onset): 1
ability of patient four sera to recognize the 64 kD pancreatic polypeptide after prior absorption [8]: abolished
